Assay results: patent US20200239573A1 (CRESCENDO BIOLOGICS, published 2020)

Assays:
[1] = molecular target: T1, recombinant human PD-1 Fc chimera (human, UniProt Q15116 25-167); test: HTRF inhibition; strep-tagged PD-L1 vs PD-1-Fc
T1 construct: Bought protein; also called human PD-1-huFc; huPD-1-Fc; not shown: human Fc
Procedure: All samples and reagents were prepared in HTRF assay buffer containing PBS, 0.1% (w/v) BSA and 0.4M Potassium Fluoride. […] Total binding controls containing periplasmic extract sample buffer and non-specific binding controls containing excess untagged competitor were set up on each plate for data normalisation. Time-resolved fluorescent emission at 620 nm and 665 nm was measured following excitation at 337 nm on the BMG PHERAstar plate reader. Data was expressed as a % of the total binding control (% control) after subtraction of the background signal determined from the non-specific binding control wells.

[2] = molecular target: T1, recombinant human PD-1 Fc chimera; test: HTRF inhibition; biotinylated PD-L2-Fc vs Eu-cryptate PD-1-Fc
[3] = molecular target: T2, human PD-1 expressed on cells (CHO human PD-1 cells) (human, UniProt Q15116 21-288); test: FMAT inhibition; 100 pM PD-L1-Fc on CHO human PD-1 cells
T2 construct: also called CHO TREX human PD-1 cell line; CHO PD-1
T2 sequence (Q15116 21-288): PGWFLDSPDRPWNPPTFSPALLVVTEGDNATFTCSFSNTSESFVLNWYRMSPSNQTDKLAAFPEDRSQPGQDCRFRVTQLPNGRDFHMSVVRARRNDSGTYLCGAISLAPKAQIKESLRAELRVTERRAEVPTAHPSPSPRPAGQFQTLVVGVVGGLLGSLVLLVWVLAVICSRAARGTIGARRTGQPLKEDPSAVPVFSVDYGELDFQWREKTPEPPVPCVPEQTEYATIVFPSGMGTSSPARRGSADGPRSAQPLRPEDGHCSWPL
Procedure: (§1) All reagents and serially diluted VH were prepared in FMAT assay buffer. […] Plates were incubated for 2 hours at room temperature then fluorescence measured in the FL2 (502 nm-537 nm) and FL5 (677-800 nm) channels on the Mirrorball plate reader (TTP) following excitation at 488 nm and 640 nm. Data was expressed as a % of the total binding control (i.e. % control) after subtraction of the background signal determined from the non-specific binding control wells.

[4] = molecular target: T2, human PD-1 expressed on cells (CHO …); test: cell-based or functional assay
[5] = molecular target: T2, human PD-1 expressed on cells (CHO …); test: FMAT inhibition; 200 pM PD-L2 on CHO human PD-1 cells
Procedure: as §1

[6] = molecular target: T2, human PD-1 expressed on cells (CHO …); test: FMAT epitope competition on CHO human PD-1 cells; competitor 1 nM 1.1-Strep
Procedure: For the epitope competition assay reagents were prepared in FMAT assay buffer. […] Plates were incubated for a minimum of 1.5 hours at room temperature then fluorescence measured in the FL2 (502 nm-537 nm) and FL5 (677-800 nm) channels on the Mirrorball plate reader (TTP) following excitation at 488 nm and 640 nm. Data was expressed as a % of the total binding control (i.e. % control) after subtraction of the background signal determined from the non-specific binding control wells.

[7] = molecular target: T3, Strep tagged recombinant human PD-1 (human, UniProt Q15116 25-170, limits assumed); test: SPR Biacore T200, strep-tagged PD-1 amine-coupled, single cycle kinetics
T3 construct: the whole entry is named; also called strep tagged human PD-1; not shown: Strep tag
T3 sequence (Q15116 25-170 limits assumed): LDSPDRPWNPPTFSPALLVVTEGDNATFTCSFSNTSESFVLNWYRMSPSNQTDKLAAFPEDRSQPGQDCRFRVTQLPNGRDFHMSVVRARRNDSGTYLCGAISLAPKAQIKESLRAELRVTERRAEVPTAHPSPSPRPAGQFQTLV
Procedure: Single cycle kinetics assays were used to study the interaction between human PD-1 with Humabody® on a Biacore T200 instrument (GE Healthcare). Strep tagged recombinant human PD-1 was amine coupled to one flow cell of a CM-5 chip to create a low density surface (14 RU) using standard Biacore reagents. For the reference flow cell, a blank immobilisation was carried out. A five-point, three-fold dilution series of each Humabody® was made with a top concentration of 25 nM. The binding kinetics were followed by flowing the Humabody® over the chip surface in HBS EP+ buffer at a flow rate of 30 μl/min. The contact time for each of the association steps was 180 seconds and the dissociation step was 3300 seconds. The data was fitted to a 1:1 binding model after double reference subtraction using the Biacore T200 Evaluation software.

T1 sequence (Q15116 25-167 limits assumed, change not shown): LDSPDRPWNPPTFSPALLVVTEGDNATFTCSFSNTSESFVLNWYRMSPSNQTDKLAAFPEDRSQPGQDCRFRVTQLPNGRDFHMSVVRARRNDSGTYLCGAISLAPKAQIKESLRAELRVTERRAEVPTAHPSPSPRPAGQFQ

| IC50 [1] [nM] | IC50 [3] [nM] | IC50 [6] [nM] | Binder | further results |
| --- | --- | --- | --- | --- |
| 3.13 | – | – | Humabody® 1.4 (VHH, human VH single domain antibody) VHH: QVQLVESGGGLVKPGGSLRLSCAASGFTFSDYYMIWMRQAPGKGLEWVSYISGGGTTKYYTDSVKGRFTISRDNAKNSLYLQMNSLRADDTAVYYCAREAPLRLGETPHDAFDIWGQGTMVTVSS | IC50 [2]: 14 nM |
| – | 5.8 | – | Humabody® 1.65 (VHH, human VH single domain antibody) VHH: QVQLVESGGGLVKPGGSLRLSCAASGFTFSDSSMTWMRQAPGKGLEWVSYISSGGGVKFYADSVKGRFTISRDNAKNSLYLQMNSLRADDTAVYYCAREAPLRLGESPHDAFDISGQGTMVTVSS | Reporter Assay EC50 [4]: 11 nM; IC50 [5]: 8.5 nM |
| – | 5.7 | – | Humabody® 1.62 (VHH, human VH single domain antibody) VHH: QVQLVESGGGLVKPGGSLRLSCAASGFTFSDSSMTWMRQAPGKGLEWVSYISSGGAVKFYTDSVKGRFTISRDNAKNSLYLQMNSLRADDTAVYYCAREAPLRLGESPHDAFDISGQGTMVTVSS | Reporter Assay EC50 [4]: 14 nM; IC50 [5]: 10 nM |
| – | 3.56 | 1.4 | Humabody® 1.91 (VHH, human VH single domain antibody) VHH: EVQLVESGGGLVKPGGSLRLSCAASGFTFSDQSMTWMRQAPGKGLEWVSYISSGGGVKFYADSVKGRFTISRDNAKNSLYLQMNSLRAEDTAVYYCAREAPLRLGESPHDAFDISGQGTMVTVSS | – |
| 2.66 | – | – | Humabody® 1.5 (VHH, human VH single domain antibody) VHH: EVQLVESGGGLVKPGGSLRLSCAASGFTFSDYTMTWMRQAPGKGLEWVSYISTGGNTKYYTDSVKGRFTISRDNAKNSLYLQMNSLRADDTAVYYCAREAPLRLGESPHDAFDIWGQGTMVTVSS | IC50 [2]: 22 nM |
| – | 2.61 | 1.5 | Humabody® 1.100 (VHH, human VH single domain antibody) VHH: EVQLVESGGGLVKPGGSLRLSCAASGFTFSDLSMTWMRQAPGKGLEWVSYISSGGGVKFYADSVKGRFTISRDNAKNSLYLQMNSLRAEDTAVYYCAREAPLRLGESPHDAFDISGQGTMVTVSS | – |
| – | 1.86 | 1.4 | Humabody® 1.99 (VHH, human VH single domain antibody) VHH: EVQLVESGGGLVKPGGSLRLSCAASGFTFSDRSMTWMRQAPGKGLEWVSYISSGGGVKFYADSVKGRFTISRDNAKNSLYLQMNSLRAEDTAVYYCAREAPLRLGESPHDAFDISGQGTMVTVSS | Reporter Assay EC50 [4]: 4.2 nM |
| 5.16 | – | – | Humabody® 1.11 (VHH, human VH single domain antibody) VHH: EVQLLESGGGLVKPGGSLRLSCAASGFTFSDYDMTWIRQAPGKGQEWVSYISRGGSTKYYADSVKGRFTISRDNAKNSLYLQMNSLRAEDTAVYYCAREAPLRLGETPHDAFDIWGQGTMVTVSS | – |
| – | 2.08 | 1.1 | Humabody® 1.98 (VHH, human VH single domain antibody) VHH: EVQLVESGGGLVKPGGSLRLSCAASGFTFSDKSMTWMRQAPGKGLEWVSYISSGGGVKFYADSVKGRFTISRDNAKNSLYLQMNSLRAEDTAVYYCAREAPLRLGESPHDAFDISGQGTMVTVSS | Reporter Assay EC50 [4]: 6.5 nM |
| 28.5 | – | – | Humabody® 1.14 (VHH, human VH single domain antibody) VHH: EVQLVESGGGLVQPGRSLRLSCAASGFTFSDYTMTWMRQAPGKGLEWVSYISTGGTIKYYTDSVKGRFTISRDNAKNSLYLQMNSLRADDTAVYYCAREAPLRLGESPHDAFDIWGQGTMVTVSS | – |
| – | 3.32 | 1.7 | Humabody® 1.97 (VHH, human VH single domain antibody) VHH: EVQLVESGGGLVKPGGSLRLSCAASGFTFSDISMTWMRQAPGKGLEWVSYISSGGGVKFYADSVKGRFTISRDNAKNSLYLQMNSLRAEDTAVYYCAREAPLRLGESPHDAFDISGQGTMVTVSS | – |
| 17 | – | – | Humabody® 1.13 (VHH, human VH single domain antibody) VHH: EVQLLESGGGLVKPGGSLRLSCAASGFTFSDYTMTWMRQAPGKGLEWVSYISTGGTIKYYTDSVKGRFTISRDNAKNSLYLQMNSLRADDTAVYYCAREAPLRLGESPHDAFDIWGQGTMVTVSS | IC50 [2]: 10 nM |
| – | 2.12 | 1.5 | Humabody® 1.93 (VHH, human VH single domain antibody) VHH: EVQLVESGGGLVKPGGSLRLSCAASGFTFSDASMTWMRQAPGKGLEWVSYISSGGGVKFYADSVKGRFTISRDNAKNSLYLQMNSLRAEDTAVYYCAREAPLRLGESPHDAFDISGQGTMVTVSS | – |
| 0.913 | – | – | Humabody® 1.9 (VHH, human VH single domain antibody) VHH: QVQLVESGGGLVKPGGSLRLSCAASGFTFGDYTMTWMRQAPGKGLEWVSYISTGGTIKYYTDSVKGRFTISRDNAKNSLYLQMDSLRADDTAVYYCAREAPLRLGESPHDAFDIWGQGTMVTVSS | IC50 [2]: 7.5 nM |
| – | 3 | 1.6 | Humabody® 1.90 (VHH, human VH single domain antibody) VHH: EVQLVESGGGLVKPGGSLRLSCAASGFTFSDVSMTWMRQAPGKGLEWVSYISSGGGVKFYADSVKGRFTISRDNAKNSLYLQMNSLRAEDTAVYYCAREAPLRLGESPHDAFDISGQGTMVTVSS | – |
| – | 3.59 | 2 | Humabody® 1.95 (VHH, human VH single domain antibody) VHH: EVQLVESGGGLVKPGGSLRLSCAASGFTFSDGSMTWMRQAPGKGLEWVSYISSGGGVKFYADSVKGRFTISRDNAKNSLYLQMNSLRAEDTAVYYCAREAPLRLGESPHDAFDISGQGTMVTVSS | – |
| – | 4.5 | – | Humabody® 1.63 (VHH, human VH single domain antibody) VHH: EVQLVESGGGLVKPGGSLRLSCAASGFTFSDSSMTWMRQAPGKGLEWVSYISSGGGVKFYTDSVKGRFTISRDNAKNSLYLQMNSLRADDTAVYYCAREAPLRLGESPHDAFDISGQGTMVTVSS | Reporter Assay EC50 [4]: 12 nM; IC50 [5]: 6.9 nM |
| 4.18 | – | – | Humabody® 1.12 (VHH, human VH single domain antibody) VHH: EVQLLESGGGVVKPGGSLRLSCAASGFTFSDYYMGWIRQAPGKGLEWISYISSSGSTIYYADSVKGRFTISRDNAKNSLYLQMNSLRAEDTAVYYCAREAPLRLGESPHDAFDIWGQGTMVTVSS | – |
| 3.78 | – | – | Humabody® 1.15 (VHH, human VH single domain antibody) VHH: QVQLVESGGGLVKPGGSLRLSCAASGFTFSDNSMSWIRQAPGKGLEWVSYISSSGSTIYYADSVKGRFTISRDNAKNSLYLQMNTLRAEDTAVYYCAKEAPLRLGESPHDAFDIWGQGTMVTVSS | – |
| – | 1.82 | – | Humabody® 1.80 (VHH, human VH single domain antibody) VHH: EVQLVESGGGLVKPGGSLRLSCAASGFTFSDSSMTWMRQAPGKGLEWVSYISSGGGVKFYADSVKGRFTISRDNAKNSLYLQMNSLRAEDTAVYYCAREAPLRLGESPHDAFDISGQGTMVTVSS | Kd [7]: 0.0297 nM; koff [7]: 5.2e-05 s⁻¹; kon [7]: 1.76e+06 M⁻¹ s⁻¹ |
| – | 2.45 | 1.6 | Humabody® 1.96 (VHH, human VH single domain antibody) VHH: EVQLVESGGGLVKPGGSLRLSCAASGFTFSDTSMTWMRQAPGKGLEWVSYISSGGGVKFYADSVKGRFTISRDNAKNSLYLQMNSLRAEDTAVYYCAREAPLRLGESPHDAFDISGQGTMVTVSS | Kd [7]: 0.08 nM; koff [7]: 0.00012 s⁻¹; kon [7]: 1.52e+06 M⁻¹ s⁻¹ |
